Each block holds one substance with its values, some of them ahead of it.
Legend:
[1] = molecular target: polypeptide molecule 7 (bovine) (UniProt P19111); assay: HI-1000 capture immunoassay, ALP chemiluminescence; calibrator C2 (0.0711728 ug/mL), run 1
[2] = molecular target: polypeptide molecule 7 (bovine) (UniProt P19111); assay: HI-1000 capture immunoassay, ALP chemiluminescence; calibrator C3 (0.2846914 ug/mL), run 3
[3] = molecular target: polypeptide molecule 7 (bovine) (UniProt P19111); assay: HI-1000 capture immunoassay, ALP chemiluminescence; calibrator C4 (2.562222 ug/mL), run 2
[4] = molecular target: polypeptide molecule 7 (bovine) (UniProt P19111); assay: HI-1000 capture immunoassay, ALP chemiluminescence; calibrator C1 (0.0177932 ug/mL), run 3
[5] = molecular target: polypeptide molecule 7 (bovine) (UniProt P19111); assay: HI-1000 capture immunoassay, ALP chemiluminescence; calibrator C4 (2.562222 ug/mL), run 3
[6] = molecular target: polypeptide molecule 7 (bovine) (UniProt P19111); assay: HI-1000 capture immunoassay, ALP chemiluminescence; calibrator C1 (0.0177932 ug/mL), run 1
[7] = molecular target: polypeptide molecule 7 (bovine) (UniProt P19111); assay: HI-1000 capture immunoassay, ALP chemiluminescence; calibrator C2 (0.0711728 ug/mL), mean of 3
[8] = molecular target: polypeptide molecule 7 (bovine) (UniProt P19111); assay: HI-1000 capture immunoassay, ALP chemiluminescence; calibrator C2 (0.0711728 ug/mL), run 2
[9] = molecular target: polypeptide molecule 7 (bovine) (UniProt P19111); assay: HI-1000 capture immunoassay, ALP chemiluminescence; calibrator C4 (2.562222 ug/mL), mean of 3
[10] = molecular target: polypeptide molecule 7 (bovine) (UniProt P19111); assay: HI-1000 capture immunoassay, ALP chemiluminescence; calibrator C3 (0.2846914 ug/mL), mean of 3
[11] = molecular target: polypeptide molecule 7 (bovine) (UniProt P19111); assay: HI-1000 capture immunoassay, ALP chemiluminescence; calibrator C3 (0.2846914 ug/mL), run 1
[12] = molecular target: polypeptide molecule 7 (bovine) (UniProt P19111); assay: HI-1000 capture immunoassay, ALP chemiluminescence; calibrator C4 (2.562222 ug/mL), run 1
[13] = molecular target: polypeptide molecule 7 (bovine) (UniProt P19111); assay: HI-1000 capture immunoassay, ALP chemiluminescence; calibrator C3 (0.2846914 ug/mL), run 2
[14] = molecular target: polypeptide molecule 7 (bovine) (UniProt P19111); assay: HI-1000 capture immunoassay, ALP chemiluminescence; calibrator C5 (7.686667 ug/mL), run 3
[15] = molecular target: polypeptide molecule 7 (bovine) (UniProt P19111); assay: HI-1000 capture immunoassay, ALP chemiluminescence; calibrator C1 (0.0177932 ug/mL), mean of 3
[16] = molecular target: polypeptide molecule 7 (bovine) (UniProt P19111); assay: HI-1000 capture immunoassay, ALP chemiluminescence; calibrator C2 (0.0711728 ug/mL), run 3
[17] = molecular target: polypeptide molecule 7 (bovine) (UniProt P19111); assay: HI-1000 capture immunoassay, ALP chemiluminescence; calibrator C1 (0.0177932 ug/mL), run 2
[18] = molecular target: polypeptide molecule 7 (bovine) (UniProt P19111); assay: HI-1000 capture immunoassay, ALP chemiluminescence; calibrator C5 (7.686667 ug/mL), mean of 3
[19] = molecular target: polypeptide molecule 7 (bovine) (UniProt P19111); assay: HI-1000 capture immunoassay, ALP chemiluminescence; calibrator C5 (7.686667 ug/mL), run 2
[20] = molecular target: polypeptide molecule 7 (bovine) (UniProt P19111); assay: HI-1000 capture immunoassay, ALP chemiluminescence; calibrator C5 (7.686667 ug/mL), run 1
[21] = molecular target: polypeptide molecule 8 (human) (UniProt P05186); assay: sandwich ELISA, ALP-labeled anti-TNAP detection; calibrator C3 (70 ug/mL), run 1
[22] = molecular target: polypeptide molecule 8 (human) (UniProt P05186); assay: sandwich ELISA, ALP-labeled anti-TNAP detection; calibrator C3 (70 ug/mL), run 2
[23] = molecular target: polypeptide molecule 8 (human) (UniProt P05186); assay: sandwich ELISA, ALP-labeled anti-TNAP detection; calibrator C5 (280 ug/mL), run 2
[24] = molecular target: polypeptide molecule 8 (human) (UniProt P05186); assay: sandwich ELISA, ALP-labeled anti-TNAP detection; calibrator C5 (280 ug/mL), run 3
[25] = molecular target: polypeptide molecule 8 (human) (UniProt P05186); assay: sandwich ELISA, ALP-labeled anti-TNAP detection; calibrator C4 (140 ug/mL), run 1
[26] = molecular target: polypeptide molecule 8 (human) (UniProt P05186); assay: sandwich ELISA, ALP-labeled anti-TNAP detection; calibrator C5 (280 ug/mL), run 1
[27] = molecular target: polypeptide molecule 8 (human) (UniProt P05186); assay: sandwich ELISA, ALP-labeled anti-TNAP detection; calibrator C2 (35 ug/mL), mean of 3
[28] = molecular target: polypeptide molecule 8 (human) (UniProt P05186); assay: sandwich ELISA, ALP-labeled anti-TNAP detection; calibrator C3 (70 ug/mL), mean of 3
[29] = molecular target: polypeptide molecule 8 (human) (UniProt P05186); assay: sandwich ELISA, ALP-labeled anti-TNAP detection; calibrator C1 (17.5 ug/mL), run 1
[30] = molecular target: polypeptide molecule 8 (human) (UniProt P05186); assay: sandwich ELISA, ALP-labeled anti-TNAP detection; calibrator C1 (17.5 ug/mL), run 3
[31] = molecular target: polypeptide molecule 8 (human) (UniProt P05186); assay: sandwich ELISA, ALP-labeled anti-TNAP detection; calibrator C1 (17.5 ug/mL), mean of 3
[32] = molecular target: polypeptide molecule 8 (human) (UniProt P05186); assay: sandwich ELISA, ALP-labeled anti-TNAP detection; calibrator C4 (140 ug/mL), run 2
[33] = molecular target: polypeptide molecule 8 (human) (UniProt P05186); assay: sandwich ELISA, ALP-labeled anti-TNAP detection; calibrator C1 (17.5 ug/mL), run 2
[34] = molecular target: polypeptide molecule 8 (human) (UniProt P05186); assay: sandwich ELISA, ALP-labeled anti-TNAP detection; calibrator C4 (140 ug/mL), mean of 3
[35] = molecular target: polypeptide molecule 8 (human) (UniProt P05186); assay: sandwich ELISA, ALP-labeled anti-TNAP detection; calibrator C3 (70 ug/mL), run 3
[36] = molecular target: polypeptide molecule 8 (human) (UniProt P05186); assay: sandwich ELISA, ALP-labeled anti-TNAP detection; calibrator C4 (140 ug/mL), run 3
[37] = molecular target: polypeptide molecule 8 (human) (UniProt P05186); assay: sandwich ELISA, ALP-labeled anti-TNAP detection; calibrator C5 (280 ug/mL), mean of 3
[38] = molecular target: polypeptide molecule 8 (human) (UniProt P05186); assay: sandwich ELISA, ALP-labeled anti-TNAP detection; calibrator C2 (35 ug/mL), run 3
[39] = molecular target: polypeptide molecule 8 (human) (UniProt P05186); assay: sandwich ELISA, ALP-labeled anti-TNAP detection; calibrator C2 (35 ug/mL), run 1
[40] = molecular target: polypeptide molecule 8 (human) (UniProt P05186); assay: sandwich ELISA, ALP-labeled anti-TNAP detection; calibrator C2 (35 ug/mL), run 2

Sequence of UniProt P19111 (P19111 other isoform, or with tags, fused parts or gaps limits assumed): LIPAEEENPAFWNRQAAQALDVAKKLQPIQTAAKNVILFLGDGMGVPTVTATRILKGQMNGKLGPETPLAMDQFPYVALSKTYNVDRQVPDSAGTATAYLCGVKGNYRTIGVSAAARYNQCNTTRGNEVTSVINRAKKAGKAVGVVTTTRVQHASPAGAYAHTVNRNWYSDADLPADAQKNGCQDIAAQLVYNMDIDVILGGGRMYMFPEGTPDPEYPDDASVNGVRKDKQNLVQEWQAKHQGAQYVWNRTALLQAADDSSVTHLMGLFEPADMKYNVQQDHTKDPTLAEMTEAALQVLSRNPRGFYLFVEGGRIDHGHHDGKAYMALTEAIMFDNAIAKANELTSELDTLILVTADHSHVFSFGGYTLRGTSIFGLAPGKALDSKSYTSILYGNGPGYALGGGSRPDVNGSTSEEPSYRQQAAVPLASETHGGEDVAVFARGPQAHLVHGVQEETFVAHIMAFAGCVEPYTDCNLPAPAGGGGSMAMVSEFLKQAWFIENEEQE
Sequence of UniProt P05186 (P05186 other isoform, or with tags, fused parts or gaps limits assumed): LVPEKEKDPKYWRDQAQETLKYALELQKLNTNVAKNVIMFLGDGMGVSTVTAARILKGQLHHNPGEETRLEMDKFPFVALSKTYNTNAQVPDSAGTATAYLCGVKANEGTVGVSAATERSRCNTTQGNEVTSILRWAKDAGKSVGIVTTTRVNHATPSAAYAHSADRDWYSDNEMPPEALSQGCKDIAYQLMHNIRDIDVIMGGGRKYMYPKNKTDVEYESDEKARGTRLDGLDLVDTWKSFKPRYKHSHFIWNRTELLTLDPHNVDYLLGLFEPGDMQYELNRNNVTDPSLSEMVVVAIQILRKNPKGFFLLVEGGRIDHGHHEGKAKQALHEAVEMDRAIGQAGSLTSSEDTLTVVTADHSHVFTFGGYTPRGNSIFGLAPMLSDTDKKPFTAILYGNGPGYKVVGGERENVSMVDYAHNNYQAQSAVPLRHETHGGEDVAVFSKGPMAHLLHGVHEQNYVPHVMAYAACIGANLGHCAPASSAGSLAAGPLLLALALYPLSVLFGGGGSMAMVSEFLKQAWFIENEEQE

emission intensity (count) [1]: 13000 count | emission intensity (count) [2]: 45800 count | emission intensity (count) [3]: 260000 count | emission intensity (count) [4]: 3650 count | emission intensity (count) [5]: 271000 count | emission intensity (count) [6]: 3800 count | emission intensity (count), AV [7]: 13000 count | emission intensity (count) [8]: 13100 count | emission intensity (count), AV [9]: 266000 count | emission intensity (count), AV [10]: 46600 count | emission intensity (count) [11]: 47000 count | emission intensity (count) [12]: 266000 count | emission intensity (count) [13]: 46800 count | emission intensity (count) [14]: 452000 count | emission intensity (count), AV [15]: 3700 count | emission intensity (count) [16]: 13000 count | emission intensity (count) [17]: 3650 count | emission intensity (count), AV [18]: 450000 count | emission intensity (count) [19]: 460000 count | emission intensity (count) [20]: 439000 count
Substance: biotin-labeled anti-Annexin A1 antibody (Clone: EH17a)

relative emission intensity (RLU) [21]: 31900 RLU | relative emission intensity (RLU) [22]: 33200 RLU | relative emission intensity (RLU) [23]: 86100 RLU | relative emission intensity (RLU) [24]: 87800 RLU | relative emission intensity (RLU) [25]: 50900 RLU | relative emission intensity (RLU) [26]: 89000 RLU | relative emission intensity (RLU), AV [27]: 22800 RLU | relative emission intensity (RLU), AV [28]: 32400 RLU | relative emission intensity (RLU) [29]: 16500 RLU | relative emission intensity (RLU) [30]: 17000 RLU | relative emission intensity (RLU), AV [31]: 16700 RLU | relative emission intensity (RLU) [32]: 51900 RLU | relative emission intensity (RLU) [33]: 16400 RLU | relative emission intensity (RLU), AV [34]: 51200 RLU | relative emission intensity (RLU) [35]: 32100 RLU | relative emission intensity (RLU) [36]: 50900 RLU | relative emission intensity (RLU), AV [37]: 87600 RLU | relative emission intensity (RLU) [38]: 25000 RLU | relative emission intensity (RLU) [39]: 21600 RLU | relative emission intensity (RLU) [40]: 21700 RLU
Substance: anti-Annexin A1 antibody (Santacruz, sc-12740)

Reference: patent US20250298024A1
